{"source": "paper PMC12599243", "about": "“Mechanistic insights into DNA binding by BD1 of the TAF1 tandem bromodomain module”", "test_system": "TAF1 tandem bromodomain N1460F (human)", "experiment": "EMSA", "settings": "no peptide; EMSA: 50 mM HEPES pH 7.5, 100 mM NaCl, 35 nM DNA, 1 h at 4 C; 6% native PAGE, 0.5x TBE, 100 V on ice. HeLa mononucleosome pulldown (undefined DNA) not listed."}
{"substance": "147 bp Widom 601 DNA", "values": [{"measurement": "Kd", "result": 18.2, "unit": "µM"}]}
